Test results as given in patent US20170052184A1.
Read-outs that look alike come from different tables or passages of the source.

Key:
[1] = biological target: bovine serum albumin (BSA) (bovine) (UniProt P02769); assay: EIA, BSA background
[2] = biological target: bovine serum albumin (bovine) (UniProt P02769); assay: EIA, BSA control
[3] = biological target: bovine serum albumin (BSA) (bovine) (UniProt P02769); assay: EIA, BSA background; remark: listed apart in the source
HCV Core1-169 (HCV-1) [4] = biological target: HCV Core1-169 (HCV-1) (UniProt P26664); assay: EIA, core1-169 coated on plate
HCV Core1-169 (HCV-1) [5] = biological target: HCV Core1-169 (HCV-1) (UniProt P26664); assay: EIA, core1-169 captured by mAb 14-153-229
[6] = biological target: T1, HCV bt-141-161 (Peptide 2, HCVc 141-161) (Hepatitis C virus (numbering per HCV-1)); assay: EIA, captured mAb + biotin peptide
T1 sequence (peptide, biotin (carboxy-terminal per [p-0227]; N-terminal per [p-0050])): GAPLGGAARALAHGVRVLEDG

Sequence of bovine serum albumin (bovine) (P02769 25-607 limits assumed): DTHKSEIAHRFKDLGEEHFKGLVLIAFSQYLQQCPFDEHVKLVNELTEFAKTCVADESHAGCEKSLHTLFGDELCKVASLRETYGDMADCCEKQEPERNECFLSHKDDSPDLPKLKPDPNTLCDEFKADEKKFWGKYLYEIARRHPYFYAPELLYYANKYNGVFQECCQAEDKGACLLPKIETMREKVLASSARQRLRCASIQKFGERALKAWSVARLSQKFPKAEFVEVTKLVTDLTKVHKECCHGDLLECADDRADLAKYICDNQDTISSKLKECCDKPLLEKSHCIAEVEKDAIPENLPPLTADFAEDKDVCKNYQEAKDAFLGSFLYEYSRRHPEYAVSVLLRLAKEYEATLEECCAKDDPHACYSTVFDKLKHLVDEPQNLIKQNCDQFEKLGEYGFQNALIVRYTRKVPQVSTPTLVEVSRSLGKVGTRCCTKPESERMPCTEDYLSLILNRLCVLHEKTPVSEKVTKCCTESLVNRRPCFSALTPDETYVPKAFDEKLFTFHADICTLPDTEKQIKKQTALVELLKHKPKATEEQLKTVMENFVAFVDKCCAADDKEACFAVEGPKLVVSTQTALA
Sequence of bovine serum albumin (BSA) (bovine) (P02769 25-607 limits assumed): as above

Binder	OD (A492) [1] [OD]	Reactivity (OD 492 nm) [2] [OD units]	OD (A492) [3] [OD]	OD (A492) (HCV Core1-169 (HCV-1) [4]) [OD]	OD (A492) (HCV Core1-169 (HCV-1) [5]) [OD]	Reactivity (OD 492 nm) [6] [OD units]
HCV 208B-515 (antibody, V domains shown) VH: QVQLQQPGAELVKPGASLKLSCRASGYTFTSYWIHWVKQRPGQGLEWIGEIDPSDSYTNYNQKFKGKATLTVDKSSRAAYMQLSSLTSEDSAVYYCARHYYGVFDSWGQGTKLTVSS VL: QIVFTQYPAIMSASLGERVTMTCTASSSVTSSYLHWFQQKPGSSPKLWIYSTSNPGSGVPARFSGRGSGTSYSLSISSMEAEDAATYYCLQFHRSPWTFGGGTKLEIRR	0.07	0.06	0.08			
HCV 208B-327 (antibody, V domains shown) VH: EVQLVESGGGLVKPGGSLKLSCAASGFTFSDSYMYWVRQTPDQRLEWVATISDGGSYTFYPDSVKGRFTISRDNAQNNLYLQMSSLKSEDTAMYYCASPHAGYFGWFAYWGRGTLVTVSA VL: DIVMTQAAFSNPVTPGTSVSISCRSSKSLLHSNGITYLYWYLQKPGQSPQLLIYQMSKIASGVPDRFRSSGSGTDFTLRISRVEAADVGVYYCAQNLELPWTFGGGTKLEIKR	0.08	0.05	0.09			
HCV 208A-442 (antibody, V domains shown) VH: DVQLQESGPGLVNPSQSLSLTCSVTGYSITSGYYWIWIRQFPGNKLEWMGYIKYDGGNNYSPSLKNRISIARDTSKNQFFLKLNSVTIEDTATYYCTRGSDSFDYWGQGTTLTVSS VL: DIVLTQSPASLAVSLGQRAIISCKASQSVSFAGTNLMHWYQQKPGQQPKLLIYRASNLETGVPTRFSGSGSRTDFTLNIHPVEEDDAATYYCQQSREYYTFGGGTKLEIKR	0.06	0.06	0.14			
HCV 208A-422 (antibody, V domains shown) VH: DVQLQESGPGLVNPSQSLSLTCSVTGYSITSGYYWIWIQQSPGNKLEWMGYIKYDGGNNYSPSLKNRISIARDTSKNQCFLKLNSVTIEDTATYYCTRGSDSFDYWGQGTTLTVSS VL: DIVLTQSPASLAVSLGQRAIISCKASQSVSFAGTNLMHWYQQKPGQQPKLLIYRASNLETGVPTRFSGSGSRTDFTLNIHPVEEDDAATYYCQQSREYYTFGGGTKLEIKR	1.1	0.07	0.11	1.68	0.18	
HCV 208B-793 (antibody, V domains shown) VH: EVKLVESGGGLVQPGGSLKLSCAASGFTFSSYAMSWVRQTPERRLEWVTYISNGGGSTYYSDTVKGRFTFSRDNAKNTLYLQMSSLKSEDTAMYYCARHGLGRTGFASWGQGTLVTVSA VL: DIVMTQSHKFMSTSVGDRVSITCKASQDVGTAVAWYQQKPGQSPKLLIYWASTRHTGVPDRFTGSGSGTDFTLTISNVQSEDLADYFCQQYSNYLTFGAGTKLEVKR	0.42	0.13	0.2			
HCV 208B-353 (antibody, V domains shown) VH: EVQLVESGGDLVKPGGSLKLSCAASGFTFNHYGMSWVRQPPDKRLEWVATISSGGGYTYYPDSVKGRFTISRDNAKDTLSLQMSSLRSGDTAVYYCASLYGSLFAYWGQGTLVTVSA VL: DIVMTQSQKFMSTTVGDRVRVTCKASQNVGTAVAWYQQKPGQSPKLLIYSASNRYTGVPDRFTGSGSGTDFTLTITNMQSEDLADYFCQQYSTYPLTFGSGAKLEIKR	0.06	0.07	0.1			
HCV 208B-178 (antibody, V domains shown) VH: DVKLVESGGGLVKLGGSLKLSCAASGFTFSSYYMSWVRQTPEKRLELVAAINSNGGSTYYPDTVKGRFTISRDNAKNTLYLQMSSLKSEDTALYYCARHGGLGRRDWYFDVWGAGTTVTVSS VL: DIVLTQSPASLAVSLGQRATISCRASESVDNYGISFMHWYQQKPGQPPKLLIYRASNLESGIPARFSGSGSRTDFTLTINPVETDDVATYYCQQSNKDPFTFGSGAKLEIKR	0.07	0.07	0.08			
HCV 208B-408 (antibody, V domains shown) VH: EVKLVESGGGLVQPGGSLRLSCASSGFTFTDYYMSWVRQPPGKALEWLGFIRNKAYGYTTEFSASVNGRFTISRDDSQSVPYLQMNTLRAEDSATYYCARVLYYDYGGFAYWGQGTLVTVST VL: DIQMTQSPASLSASVGETVTITCRASGNIHTYLAWYQQKQGKSPQLLVYNANTLADGVPSRFSGSGSGTQFSLKINSLQPDDFGSYYCQHFWSAPWTFGGGTQLEIKR	0.08	0.06	0.1			0.2
HCV 208B-517 (antibody, V domains shown) VH: QVQLKQSGPGLVQPSQSLSITCTVSGFSLITHGVHWVRQSPGKGLEWLGVIWSGGSTDYNAAFISRLSISKDTSKSQVFLKMSSLQADDTAIYYCARNGGATAFDYWGQGTTLTVSS VL: DIVMTQSPATLSVTPGDRVSLSCRASQSISDYLHWYQQKSHESPRLLIKYASQSISGIPSRFRGSGSGSHFTLSINSVEPEDVGVYYCQNGHSFPWTFGGGTKLEIKR	0.07	0.11	0.12			
HCV 208B-822 (antibody, V domains shown) VH: QVQLKQSGPGLVQPSQSLSITCTVSGFSLITYGVHWVRQSPGKGLEWLGVIWGGGSTGYNAAFVSRLNITKDNSKSQVFFKMNSLQPDDTAIYYCARNGGATVFDYWGQGTTLTVSS VL: DIVMTQSPATLSVTPGDRVSLSCRASQTISDYLHWYQQKSHESPRLLIKYASQSISGIPSRFSGSGSGSHFTLSINSVEPEDVGVYYCQNGHSFPWTFGGGTKLEIKR	0.06	0.05	0.11			
HCV 208A-692 (antibody, V domains shown) VH: QGQMQQSGAELAKPGASVKLSCKTSGFTFSSSYISWLKQKPGQSLEWIAWIFAGTGNTNYNQKFTDKAQLTVDTSSSTAYMQLSSLTTEDSAIYYCAISGTGFTYWGQGTLVTVSA VL: EVLMTQSPLSLPVSLGDQASISCRSSQSLEHSNGNTYLEWFLQRPGQPPKLLIYKVSSRFSGVPDRFSGSGSGTDFTLKISRVEAEDLGVYYCFQGSHVPFTFGSGTKLAIKR	0.06	0.06	0.09			0.38
HCV 208A-210 (antibody, V domains shown) VH: QVQLQQSGPELVKPGASMRISCKASGYTFTSYYVHWIKQRPGQGLEWIGCIYPGDVNTDYNEKFKGKATLTADKSSSTAYMQVSTLTSEDSAIYFCVLYYYGSFAYWGQGTLVTVSA VL: EIVLTQSPAITAASLGQNVTITCRASSSVSYMHWYRQKSGTSPQLWIYEISRRASGVPARFRASGSGTSYSLTISSMEAEDAAIYYCQQWNYPLTFGAGTKLEVKR	0.06	0.06	0.08			
HCV 208A-126 (antibody, V domains shown) VH: QLQQSGPVLVKPGASVMISCKTSGYTFTENAMHWVKQSHGKSLEWIGGVNPNNGDTIFNQKFKGKATLTVDKSSNTAFTELRSLPSEESTVYYCVRRGLDFFDYWGQGTSVTVSS VL: DIVLTQSPASLAVSLGQRATISCRASQSVSTSRYSYMHWYQQKPGQPPKLLIKYASNLESGVPARFSGSGSGTDFTLNIHPVAEEDTAAYYCQHSWEFPFTFGSGTKLEIKR	0.24	0.1	0.07			
HCV 208A-874 (antibody, V domains shown) VH: QVQLQQPGAELVKPGASVKLSCKASGYTLSSYWMHWVKQRPGQGLEWIGEIHPSDSYTSYNQKFKDKATLTVDKSSSTAYMQLSSLTSEDSAVYYCARGGYYRYDEFAYWGQGTLVTVSA VL: DIVMTQSHKFMSTSIGDRVSITCKASQNVSPAVAWYQQKPGQSPKLLIYSASSRYTGVPDRFTGSGSGTAFTFTISSVQAEDLAVYFCQQHFSTPWTFGGGTMLEIKR	0.06	0.05	0.1	0.45	0.18	
HCV 208B-911 (antibody, V domains shown) VH: QVHLQQPGAELVRPGVSVKLSCKASGYTFTTYSINWMKQRPGQGLEWIGNIYPSTSHTNYNQKFRDKATMTVDKSSSTAYMQLSSPTSEDSAVYYCTINAYSMDYWGQGTSVTVSS VL: QIVLTQSPEIMSASPGEKVTITCSASSSVSFMYWFQQKPGTSPKLWIYITSNLASGVPTRFSGSGSGTSYSLTISRMEAEDAATYYCQQRSSFPYTFGGGTKLEMKR	1.17	0.1	0.17			
HCV 208B-826 (antibody, V domains shown) VH: DVQLVESGGGLVQAGGSRKLSCAASGFPFSSFGMHWVRQAPEKGLEWVASISSRTSKIYYADNLKGRFTISRDNPKNTLFLQMTSLGSEDTAMYYCVRSVFGNSYWFFDVWGAGTTVTVSS VL: DIVLTQSPATLSVTPGDRVSLSCRASQRIYNYLHWYQQKSHESPRLLTKYASQSISGIPSRFSGSGSGTDFILTINSVETEDFGMYFCQQSNSWPLTFGAGTKLELRR	0.08	0.07	0.41			
